Experiment [1] has as its target T1, Recombinant human EGFR-ED (human, UniProt P00533 25-645).
T1 construct: extracellular domain; also called extracellular domain (ED) of EGFR
Briefly: SPR, v1323 captured by anti-human IgG, EGFR-ED injected, 1:1 Langmuir fit. The method, then: (§1) The ability of v1323 comprising an EGFR binding domain to bind to the extracellular domain (ED) of EGFR was tested by Surface Plasmon Resonance (SPR) using a ProteOn XPR36 system from BIO-RAD.
(§2) Approximately 3000 RU of anti-human IgG 25 ug/ml was immobilized on a GLC chip using standard amine coupling. Exemplary SDACs were captured on the anti-human IgG immobilized chip to capture level of approximately 700 RU. Recombinant human EGFR-ED was diluted in running buffer and injected at a flow rate of 50 μl/min for 2 minutes, followed by dissociation for another 4 minutes. Sensograms were fit globally to a 1:1 Langmuir binding model. All experiments were conducted at room temperature.
Background: Surface plasmon resonance follows binding to a sensor surface in real time, without labels.

Experiment [2] deals with T1, Recombinant human EGFR-ED. Briefly: SPR (ProteOn XPR36); v1323 captured on immobilized anti-human IgG, recombinant human EGFR-ED injected as analyte; global 1:1 Langmuir fit. The method, then: as §1, §2

B1: v1323, monovalent anti-EGFR antibody (EG2) (Fc fusion)
VHH: QVKLEESGGGLVQAGDSLRVSCAASGRDFSDYVMGWFRQAPGKEREFVAAISRNGLTTRYADSVKGRFTISRDNDKNMVYLQMNSLKPEDTAVYYCAVNSAGTYVSPRSREYDYWGQGTQVTVSS
notes: EU numbering; no light chain, no CH1; also called exemplary heteromultimer; not shown: hinge/linker between the VhH and the Fc (not described), and with it the heterodimer Fc carrier, left out of the chains
Regarding B1, the Kd in experiment [1] fell in the range of 3 to 4.5 nM. In experiment [2], the Kd was 4.05 nM, the koff turned out to be 0.004 s⁻¹ and the kon was determined as 989000 M⁻¹ s⁻¹.

Usually Kd stands for the equilibrium constant for the complex coming apart. For orientation: koff means the first-order rate constant of dissociation. Usually kon stands for the rate constant with which the complex forms.

The record behind these values is patent US20160257763A1 (Zymeworks, published 2016).
